According to the supplement of paper PMC12764529:
± gives the half width of the 95% confidence interval.

Legend:
[1] = folding stability dG unfold from trypsin proteolysis; higher = more stable
Procedure, shortened: (§1)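 Unfolding free energy was derived, per protease or combined, by relating Bayesian-fitted K50 values from sequencing counts to a sequence-predicted unfolded-state K50 and a shared folded-state K50. The underlying digests exposed cysteine-free mini-proteins under 80 residues, in a PA-tagged cDNA display construct, to trypsin and chymotrypsin at 11 threefold-diluted concentrations and to a no-protease condition. A filter kept only designs with AlphaFold2 dimer inter-PAE above 15.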

[2] = folding stability dG unfold from chymotrypsin proteolysis; higher = more stable
Procedure, shortened: as §1

[3] = folding stability dG unfold (combined trypsin and chymotrypsin); higher = more stable
Procedure, shortened: as §1

| Sequence | folding stability dG unfold [1] | folding stability dG unfold [2] | folding stability dG unfold [3] |
| --- | --- | --- | --- |
| SAMSVTISFDPKGPGGTLTITADPNSPQIEKFINELKKKLNLDIKSYTKTILPNGTVKVTLTYSKINLPSAG [r14_655_JUSTAS] | 4.05 ± 0.11 kcal/mol | 4.657 ± 0.028 kcal/mol | 4.51 ± 0.083 kcal/mol |
| SAMTEEEKKKKKEEEEKKKRELKIIVVAKTKDGKWKKIAEFTVKNKDMSIEELVKKLKDLGVEEVKIFPSAG [r14_318_TrROS_Hall] | 1.8 ± 0.082 kcal/mol | 3.09 ± 0.093 kcal/mol | 2.67 ± 0.26 kcal/mol |
| SAMTIEEAIEKGKIGAIVKVEVELPNGGKIEIEIFIESESLEEALEKIKAFFEALNLKVKIIEVKVFPVSAG [r14_854_TrMRF] | 3.4 ± 0.19 kcal/mol | 2.87 ± 0.1 kcal/mol | 3.09 ± 0.36 kcal/mol |
| SAMTITVPPDVSLEQIAKLLGYPNLKSFTKRKVTPNLTPATLTVPEDPNKVIKVLYRPADNYTEVIVLQSAG [r14_713_JUSTAS] | 1.02 ± 0.1 kcal/mol | 0.822 ± 0.3 kcal/mol | 0.921 ± 0.16 kcal/mol |
| SAMTPEEIKERLAAELPPSAEVMTTETFKEGDVEYVKITLRTPDSLSEATYNLETGEIERTPIGLDVPQSAG [r14_737_JUSTAS] | 0.423 ± 0.13 kcal/mol | 0.923 ± 0.13 kcal/mol | 0.792 ± 0.15 kcal/mol |
| SAMTTTETFEEGDYVYTVITTKIPSSLPPDSVVTIPVTTPLGAESEVVSEPGGTITVKVRLKKEDPELLSAG [r14_754_JUSTAS] | -1.57 ± 0.3 kcal/mol | 0.14 ± 0.088 kcal/mol | -0.176 ± 0.13 kcal/mol |
| SAMTVELTLPSEELVEKIKELLPSYVKIEKVEVDEETKTVTVTVSFDPNLSPEEQQAVVEKIKKLIEEKSAG [r14_306_JUSTAS] | 2.7 ± 0.2 kcal/mol | 3.56 ± 0.26 kcal/mol | 3.4 ± 0.28 kcal/mol |
| SAMVEVSTLPDGTTRVTITGKDPAAFEKELAELIEKIKKEGINATITKTREEPIPEEPELYRAELEIIVSAG [r14_119_JUSTAS] | 1.54 ± 0.062 kcal/mol | 1.48 ± 0.055 kcal/mol | 1.54 ± 0.25 kcal/mol |
| SAMVIIRVENKDGKTIEIAIPVRNEDGKLTKEELEELAKRLAEELAEELGLEDVKVEVEVRPLSEEELKSAG [r14_378_TrROS_Hall] | 1.64 ± 0.091 kcal/mol | 2.68 ± 0.081 kcal/mol | 2.35 ± 0.17 kcal/mol |
| SAMVITIHPDIPLEELAELLGFPEIEDATVEPLNEGIVPATFHIPEDPDKVILIDFNPEPDFALVLVLSSAG [r14_713_TrMRF] | 1.59 ± 0.067 kcal/mol | 2.25 ± 0.038 kcal/mol | 1.98 ± 0.17 kcal/mol |
| SAMVLVKIELYDPENEEPLATAEFVVPEEDLEAFVEEAKKIFGVAEDAFIKVEAAPLEPLTDESGEEVLSAG [r14_297_TrMRF] | 2.08 ± 0.12 kcal/mol | 1.786 ± 0.014 kcal/mol | 1.94 ± 0.062 kcal/mol |
| SAMVRIERLPDGSLLVVVESEGKEEGLEFIERFIEEIKSLGIDAEIELLSIEEIPEDPKRYRATFLIKASAG [r14_119_TrMRF] | 4.83 ± 0.22 kcal/mol | 6.12 ± 0.27 kcal/mol | > 6 kcal/mol |
| SAMVSPEEAAKLIAEKIREEHPDPNIVVPVKVEYDPETNTTTITVTVKYPDDPSTETFTYTLAPDDVLKSAG [r14_849_JUSTAS] | 1.53 ± 0.044 kcal/mol | 2.19 ± 0.11 kcal/mol | 1.9 ± 0.082 kcal/mol |
| SAMVTARVSDSVLRAYRLPDGYVRLVVFDPKTGEPVVEFVVPEDLITDIVEVGDKAVIHVDVKEEDLKLSAG [r14_755_TrMRF] | 1.28 ± 0.043 kcal/mol | 1.98 ± 0.064 kcal/mol | 1.69 ± 0.077 kcal/mol |
| SAMVVSEELSPEGTRTTTTFNPATGTSTTTTTPIPEEPPLPPVSIPTSLSPEEREALREELEAAGVPVVLGS [r1_242_JUSTAS] | 1.22 ± 0.047 kcal/mol | 0.0811 ± 0.093 kcal/mol | 0.652 ± 0.079 kcal/mol |
| SANEKVTVEVKIRFYFRFPKGQPFPFDITVPVTVEYDPNDPDKAKEEAKEKAIDEAIDEFRERFGYPLPSAG [r14_117_TrROS] | 1.75 ± 0.13 kcal/mol | 2.72 ± 0.13 kcal/mol | 2.37 ± 0.19 kcal/mol |
| SANMDMPPGFKPIARDDDITIWQNPNPVYIMIRGPDGKHKMLPFNPGDPEKIKDLIREFADDGITDIMISAG [r14_12_TrROS] | 1.43 ± 0.016 kcal/mol | 0.657 ± 0.12 kcal/mol | 1.09 ± 0.15 kcal/mol |
| SANTRSIPFPGSADDIVDEIKNLIDANPDVKIRIQPMDGEEYEIDIEGIEKIKVERMPDGWYMITVELPSAG [r14_807_TrROS] | 0.283 ± 0.33 kcal/mol | 1.63 ± 0.13 kcal/mol | 1.16 ± 0.21 kcal/mol |
